Positions count from the first letter of the chain named. Names may count otherwise.
B1: Cys2 K18R Gly19: Insertion of Cys residue in position 2 and of glycine residue in position 19, K18R (Cys2loop1RGd), SEQ ID NO:11 (protein)
chain: MCATRTPKLVKHTLLTRFRGDEITREQIDNYINDYTNLLDLIPSMKSFNWGTDLGMESAELNRGYTHAFESTFESKSGLQEYLDSAALAAFAEGFLPTLSQRLVIDYFLY
modifications: Sp1 mutant variant Cys inserted into position 2, K18R mutated and a Gly inserted into position 19
B2: Δ2-7 Cys2: SP1 variant Δ2-7 Cys2, SEQ ID NO:9 (protein)
chain: MCLVKHTLLTRFKDEITREQIDNYINDYTNLLDLIPSMKSFNWGTDLGMESAELNRGYTHAFESTFESKSGLQEYLDSAALAAFAEGFLPTLSQRLVIDYFLY
modifications: Sp1 mutant variant Cys inserted into position 2 together with a deletion of amino acid 2-7
B3: Δ2-6 L81C: SP1 variant Δ2-6 L81C, external perimeters of the dodecamer ring, SEQ ID NO:22 (protein)
chain: B2 chain with C2K, L76C
modifications: Sp1 mutant variant amino acids 2-6 deleted and L81C mutated
B4: Δ2-6 I40C: SP1 Loop 2 modification Δ2-6 I40C, SEQ ID NO:18 (protein)
chain: B2 chain with C2K, I35C
modifications: Sp1 mutant variant amino acids 2-6 deleted and I40C mutated
B5: Δ2-6 E72C: SP1 Loop 4 modification Δ2-6 E72C, SEQ ID NO:20 (protein)
chain: B2 chain with C2K, E67C
modifications: Sp1 mutant variant amino acids 2-6 deleted and E72C mutated
B6: 42-6 S73C: SP1 Loop 4 modification, printed 42-6 S73C, SEQ ID NO:21 (protein)
chain: B2 chain with C2K, S68C
modifications: Sp1 mutant variant amino acids 2-6 deleted and S73C mutated
B7: Δ2-6 His2: SP1 variant Δ2-6 His2, SEQ ID NO:8 (protein)
chain: MHKLVKHTLLTRFKDEITREQIDNYINDYTNLLDLIPSMKSFNWGTDLGMESAELNRGYTHAFESTFESKSGLQEYLDSAALAAFAEGFLPTLSQRLVIDYFLY
modifications: Sp1 mutant variant His inserted into position 2 together with a deletion of amino acid 2-6
B8: HH2: SP1 N-terminus modification HH2, SEQ ID NO:4 (protein)
chain: MHHATRTPKLVKHTLLTRFKDEITREQIDNYINDYTNLLDLIPSMKSFNWGTDLGMESAELNRGYTHAFESTFESKSGLQEYLDSAALAAFAEGFLPTLSQRLVIDYFLY
modifications: Sp1 mutant variant 2X His inserted into position 2
B9: R23A: SP1 mutant R23A, SEQ ID NO:12 (protein)
chain: MATRTPKLVKHTLLTRFKDEITAEQIDNYINDYTNLLDLIPSMKSFNWGTDLGMESAELNRGYTHAFESTFESKSGLQEYLDSAALAAFAEGFLPTLSQRLVIDYFLY
modifications: Sp1 mutant variant R23A mutated
B10: Y108A: SP1 mutant Y108A, SEQ ID NO:24 (protein)
chain: B9 chain with A23R, Y108A
modifications: Sp1 mutant variant Y108A mutated
B11: T34A: SP1 mutant T34A, SEQ ID NO:16 (protein)
chain: B9 chain with A23R, T34A
modifications: Sp1 mutant variant T34A mutated
B12: I30A: SP1 mutant I30A, SEQ ID NO:14 (protein)
chain: B9 chain with A23R, I30A
modifications: Sp1 mutant variant I30A mutated
B13: D27A: SP1 mutant D27A, SEQ ID NO:13 (protein)
chain: B9 chain with A23R, D27A
modifications: Sp1 mutant variant D27A mutated
B14: D38A: SP1 mutant D38A, SEQ ID NO:17 (protein)
chain: B9 chain with A23R, D38A
modifications: Sp1 mutant variant D38A mutated
B15: N31A: SP1 mutant N31A, SEQ ID NO:15 (protein)
chain: B9 chain with A23R, N31A
modifications: Sp1 mutant variant N31A mutated
B16: E68A: SP1 mutant E68A, SEQ ID NO:19 (protein)
chain: B9 chain with A23R, E68A
modifications: Sp1 mutant variant E68A mutated
B17: 6H2: six histidine N-terminal tagged SP1, SEQ ID NO:7 (protein)
chain: MHHHHHHATRTPKLVKHTLLTRFKDEITREQIDNYINDYTNLLDLIPSMKSFNWGTDLGMESAELNRGYTHAFESTFESKSGLQEYLDSAALAAFAEGFLPTLSQRLVIDYFLY
B18: N31A T34A 6XH2: SP1 mutant N31A T34A 6XH2, SEQ ID NO:30 (protein)
chain: B17 chain with N37A, T40A
modifications: Sp1 mutant variant 6Xhis inserted into position 2, N31A and T34A mutated
B19: S73A S75A 6XH2: SP1 mutant S73A S75A 6XH2, SEQ ID NO:28 (protein)
chain: B17 chain with S79A, S81A
modifications: Sp1 mutant variant 6Xhis inserted into position 2, S73A and S75A mutated
B20: D38A S75A 6XH2: SP1 mutant D38A S75A 6XH2, SEQ ID NO:29 (protein)
chain: B17 chain with D38A, D44A, S75A, S81A
modifications: Sp1 mutant variant 6Xhis inserted into position 2, D38A and S75A mutated
B21: F106A 6XH2: SP1 mutant F106A 6XH2, SEQ ID NO:23 (protein)
chain: B17 chain with F112A
modifications: Sp1 mutant variant 6Xhis inserted into position 2 and F106A mutated

Legend:
[1] = Heat stability (no precipitation after heat treatment); details: 10 min at 100° C. or 30 min at 85° C.
[2] = Oligomeric complex formation by SDS PAGE (unboiled samples); details: for Complex Formation: SDS PAGE, samples not boiled in the application buffer
Description: SP1 (20 μg) was prepared in SDS sample buffer at different SP1-monomer: SDS molar ratios and boiled (or not) (5 mM) prior to SDS-PAGE analysis. Heat stability of SP1 oligomer (10 μg) was tested in the same buffer at SP1-monomer: SDS=1:1733 and heated for 1 to 10 mM at different temperatures.
Purified 6HSP1 and ΔNSP1 were first denatured to the monomeric forms by boiling the proteins in SDS sample buffer. The denatured proteins were then separated in preparative SDS-PAGE, and visualized by Coomassie blue staining. The monomeric forms of two recombinant protein bands were excised. Gel slices that carried monomeric form of 6HSP1 (SEQ ID NO:7) and ΔNSP1 (SEQ ID NO:2) were mixed at 1:1 ratio (v/v). In order to enhance the surface/volume ratio, the gel slices were pulverized using a pestle and mortar in the presence of liquid nitrogen. […] The hetero-oligomeric complex was isolated by subjecting the eluated protein to Ni-NTA Agarose beads and the bound proteins were eluted by 400 mM imidazole using a standard procedure (Sigma protocol for P 6611). […] The composition of hetero-oligomeric SP1 was determined by SDS-PAGE and visualized by silver staining.

[3] = Protein melting point by DSC; format: physicochemical; details: protein melting point by DSC; in °C (unit assumed)
Description: Differential scanning calorimetry study of SP1 indicates in a Tm of 107° C. for SP1. […] Further, folding and refolding of inclusion bodies including insoluble SP1, and the heat stability of the unfolded proteins indicate that the intact monomer, as well as the oligomer, is heat resistant (FIG. 5).

Molecule | Heat stability [1] | oligomeric complex formation, stability and resistance ([2]; boiling and protease stability) | Complex Formation [2] | Tm [3]
B1 | + | formed a boiling stable and protease resistant dodecamer | – | –
B2 | + | – | – | –
B3 | + | – | – | –
B4 | + | – | – | –
B5 | + | – | 10 | –
B6 | + | – | 11 | –
B7 | + | – | – | –
B8 | + | – | – | –
B9 | + | – | – | 108
B10 | – | – | – | 68
B11 | + | – | – | 114
B12 | – | – | – | 98
B13 | + | – | – | –
B14 | + | – | – | 113
B15 | + | – | – | 110
B16 | + | – | – | 105.8
B17 | – | – | – | 109
B18 | – | – | – | 96.6
B19 | + | – | – | –
B20 | + | – | – | 112
B21 | – | – | – | 75

From patent publication US20150273076A1, “SP1 POLYPEPTIDES, MODIFIED SP1 POLYPEPTIDES AND USES THEREOF” (Fulcrum SP Ltd., priority 2006, published 2015)
